Test results taken from article PMC2879510.

Molecular target: U1A-Myc-His (UniProt P09012 1-102)
Test: competition

Sequence of U1A-Myc-His (P09012 1-102): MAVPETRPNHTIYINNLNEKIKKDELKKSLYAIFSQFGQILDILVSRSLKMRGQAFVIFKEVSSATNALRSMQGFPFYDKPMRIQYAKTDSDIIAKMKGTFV

B1: hpIIΔDIS (U1 hpII Δ16/18A/10G) (structured_RNA)
RNA: GGCAUAUCCAGUGCACCAGGGUAUGCC
B1: binds.
